Measured values reported in patent US20190345227A1 (HONG KONG UNIVERSITY OF SCIENCE AND TECHNOLOGY, published 2019).

B1: SpyTag-elastin-CarHC-elastin-SpyTag (other)
chain: MKGSSHHHHHHVDAHIVMVDAYKPTKLDGHGVGVPGVGVPGVGVPGEGVPGVGVPGVGVPGVGVPGVGVPGEGVPGVGVPGVGVPGVGVPGVGVPGEGVPGVGVPGVGELPEDLGTGLLEALLRGDLAGAEALFRRGLRFWGPEGVLEHLLLPVLREVGEAWHRGEIGVAEEHLASTFLRARLQELLDLAGFPPGPPVLVTTPPGERHEIGAMLAAYHLRRKGVPALYLGPDTPLPDLRALARRLGAGAVVLSAVLSEPLRALPDGALKDLAPRVFLGGQGAGPEEARRLGAEYMEDLKGLAEALWLPRGPEKEAITSVPGVGVPGVGVPGEGVPGVGVPGVGVPGVGVPGVGVPGEGVPGVGVPGVGVPGVGVPGVGVPGEGVPGVGVPGVGVPGGLLDAHIVMVDAYKPTKLEWKK
notes: Recombinant telechelic fusion protein (41 kDa) expressed in E. coli and purified on HisTrap; also called ACA; SpyTag-ELP-carHC-ELP-SpyTag
B2: SpyTag-elastin-like polypeptide-SpyTag-elastin-like polypeptide-SpyTag (other)
chain: MKGSSHHHHHHVDAHIVMVDAYKPTKLDGHGVGVPGVGVPGVGVPGEGVPGVGVPGVGVPGVGVPGVGVPGEGVPGVGVPGVGVPGVGVPGVGVPGEGVPGVGVPGVGELAHIVMVDAYKPTKTSVPGVGVPGVGVPGEGVPGVGVPGVGVPGVGVPGVGVPGEGVPGVGVPGVGVPGVGVPGVGVPGEGVPGVGVPGVGVPGGLLDAHIVMVDAYKPTKLEWKK
notes: Recombinant protein with three SpyTags; It forms the covalent network with BCB; also called AAA; SpyTag-ELP-SpyTag-ELP-SpyTag

Experiments:
[1] = molecular target: T1, SpyCatcher-elastin-CarHC-elastin-SpyCatcher; assay: Size-exclusion chromatography of the ACA+BCB reaction product and of the light-degraded gel. The major peak eluted at the void volume. The SpyTag-SpyCatcher bond is covalent.
T1 construct: Recombinant telechelic fusion protein (68 kDa) with two TEV protease sites, expressed in E. coli; also called BCB; SpyCatcher-ELP-carHC-ELP-SpyCatcher
Procedure: Using an Escherichia coli expression system, sufficient amounts of the ACA (98 mg/L) and BCB (66 mg/L) proteins with high purity (FIG. 6-9) were produced and isolaged. After extensive dialysis against distilled water and lyophilization, the resulting protein powders were readily dissolved in PBS. The two protein solutions, ACA and BCB (10 wt % in PBS), were mixed at an equimolar ratio immediately followed by addition of a stoichiometric amount of AdoB 12 to initiate gelation at room temperature in the dark. A red gel-like material was formed within 5 min; the gelation typically continued for at least 7 h in the dark before any subsequent analysis. The resulting gel was sensitive to light and converted to liquid on exposure to white LED light (30 klux) within 20 min (FIG. 2B). observed gel-sol transition can be explained by the light-induced disassembly of CarHC tetramers (FIGS. 1A & 1B). […] This SEC result further confirmed a sufficient pymerization of the CarHC proteins enabled by the SpyTag-SpyCatcher reaction during gelation.

[2] = molecular target: T1, SpyCatcher-elastin-CarHC-elastin-SpyCatc …; assay: Dynamic shear rheology and erosion tests of the covalently cross-linked (SpyTag-SpyCatcher) hydrogel
Description: Protein drugs, an important category of modem therapeutics, have a short half-life time inside the body because of rapid plasma clearance and proteolytic degradation, which constitutes a fundamental challenge for their delivery. The feasibility of using the photoresponsive CarHC-ELP hydrogel system to encapsulate and release protein molecules in a controlled manner was investigated. Two recombinant proteins, SpyTag-elastin-like polypeptide-SpyTag-elastin-like polypeptide-SpyTag (represented by the structural linkage “AAA”) (FIG. 6 and FIG. 13) and BCB, were synthesized with an elastin protein fragment to generate a covalently cross-linked ELP hydrogel. The two proteins were dissolved in PBS to make 10 wt % solutions. Gelation was initiated by mixing the two components at a 2:3 molar ratio and a stoichiometric amount of AdoB₁₂ in the dark. Dynamic shear rheology experiments in time-, frequency- and strain-sweep modes and erosion tests further confirmed the formation of a stable hydrogel (G′=0.96 kPa and G″=0.03 Pa) by AAA+BCB+AdoB₁₂ (FIGS. 14A-14C, respectively, and FIG. 15).

Row | Binder | binding result [1] | binding result [2]
1 | B1 | binds | 
2 | B2 |  | binds
